# Test results: patent US20250197467A1 (BRIGHT PEAK THERAPEUTICS, published 2025)
# Numbering of substitutions follows the chain as printed.
# T1: IL-18 receptor (IL-18Rαβ) on cells (UniProt Q13478 19-541; O95256 20-599, limits assumed)
# T1 sequence (looked up) 1: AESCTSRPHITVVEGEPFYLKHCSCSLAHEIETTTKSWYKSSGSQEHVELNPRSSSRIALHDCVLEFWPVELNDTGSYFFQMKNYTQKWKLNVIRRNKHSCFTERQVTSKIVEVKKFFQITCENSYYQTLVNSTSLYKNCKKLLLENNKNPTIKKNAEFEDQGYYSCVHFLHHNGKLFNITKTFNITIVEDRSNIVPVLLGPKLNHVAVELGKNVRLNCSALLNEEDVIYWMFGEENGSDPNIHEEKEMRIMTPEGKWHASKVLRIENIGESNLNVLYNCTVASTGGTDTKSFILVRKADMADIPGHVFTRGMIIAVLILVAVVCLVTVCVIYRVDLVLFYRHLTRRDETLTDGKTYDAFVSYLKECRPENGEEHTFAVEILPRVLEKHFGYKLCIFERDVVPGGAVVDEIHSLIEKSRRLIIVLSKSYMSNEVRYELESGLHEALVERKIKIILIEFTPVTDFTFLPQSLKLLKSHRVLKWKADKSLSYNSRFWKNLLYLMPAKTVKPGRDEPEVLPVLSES
# T1 sequence (looked up) 2: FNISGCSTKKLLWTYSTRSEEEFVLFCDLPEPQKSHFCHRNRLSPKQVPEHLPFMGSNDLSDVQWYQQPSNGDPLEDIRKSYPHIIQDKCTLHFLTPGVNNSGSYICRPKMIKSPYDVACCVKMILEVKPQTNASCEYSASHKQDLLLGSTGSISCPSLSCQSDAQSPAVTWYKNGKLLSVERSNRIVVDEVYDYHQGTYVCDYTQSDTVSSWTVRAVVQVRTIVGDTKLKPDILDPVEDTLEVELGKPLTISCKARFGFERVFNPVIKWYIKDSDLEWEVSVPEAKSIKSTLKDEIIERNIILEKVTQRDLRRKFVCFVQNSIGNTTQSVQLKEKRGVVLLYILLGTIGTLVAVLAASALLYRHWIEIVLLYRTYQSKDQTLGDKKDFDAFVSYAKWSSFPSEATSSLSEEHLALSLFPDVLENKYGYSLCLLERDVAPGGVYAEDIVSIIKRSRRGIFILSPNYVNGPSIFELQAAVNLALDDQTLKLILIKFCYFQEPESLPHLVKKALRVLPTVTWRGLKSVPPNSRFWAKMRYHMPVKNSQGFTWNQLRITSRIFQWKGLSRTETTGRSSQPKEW
# B1: C325 + MMP9 (ligand)
# chain: LAGGSGYFGKLKSKLSIIRNLNDQVLFIDQGNRPLFEDMTDSDARDNAPRTIFIISMYADSQPRGMAVAISVKCEKISTLSAENKIISFKEMNPPDNIKDTKSDIIFFQRSVPGHDNKMQFESSSYEGYFLAAEKERDLFKLILKKEDELGDRSIMFTVQNED
# B2: C323 (ligand)
# chain: MAAEPVEDNSINFVAMKFIDNTLYFIAEDDENLESDRGRRVANLVGGSGYFGKLKSKLSIIRNLNDQVLFIDQGNRPLFEDMTDSDARDNAPRTIFIISMYADSQPRGMAVAISVKCEKISTLSAENKIISFKEMNPPDNIKDTKSDIIFFQRSVPGHDNKMQFESSSYEGYFLAAEKERDLFKLILKKEDELGDRSIMFTVQNED
# B3: C325 (ligand)
# chain: B2 chain with V41P, A42L, N43G, V45A
# B4: C326 + MMP9 (ligand)
# chain: LAGSGYFGKLKSKLSIIRNLNDQVLFIDQGNRPLFEDMTDSDARDNAPRTIFIISMYADSQPRGMAVAISVKCEKISTLSAENKIISFKEMNPPDNIKDTKSDIIFFQRSVPGHDNKMQFESSSYEGYFLAAEKERDLFKLILKKEDELGDRSIMFTVQNED
# B5: C321 (ligand)
# chain: MAAEPVEDNSINFVAMKFIDNTLYFIAEDDENLESDRGRRPLGYFGKLKSKLSIIRNLNDQVLFIDQGNRPLFEDMTDSDARDNAPRTIFIISMYADSQPRGMAVAISVKCEKISTLSAENKIISFKEMNPPDNIKDTKSDIIFFQRSVPGHDNKMQFESSSYEGYFLAAEKERDLFKLILKKEDELGDRSIMFTVQNED
# B6: C326 (ligand)
# chain: MAAEPVEDNSINFVAMKFIDNTLYFIAEDDENLESDRGRRVANPLGLAGSGYFGKLKSKLSIIRNLNDQVLFIDQGNRPLFEDMTDSDARDNAPRTIFIISMYADSQPRGMAVAISVKCEKISTLSAENKIISFKEMNPPDNIKDTKSDIIFFQRSVPGHDNKMQFESSSYEGYFLAAEKERDLFKLILKKEDELGDRSIMFTVQNED
# B7: C324 + MMP9 (ligand)
# chain: YFGKLKSKLSIIRNLNDQVLFIDQGNRPLFEDMTDSDARDNAPRTIFIISMYADSQPRGMAVAISVKCEKISTLSAENKIISFKEMNPPDNIKDTKSDIIFFQRSVPGHDNKMQFESSSYEGYFLAAEKERDLFKLILKKEDELGDRSIMFTVQNED
# B8: C324 (ligand)
# chain: MAAEPVEDNSINFVAMKFIDNTLYFIAEDDENLESDRGRRVANPLGYFGKLKSKLSIIRNLNDQVLFIDQGNRPLFEDMTDSDARDNAPRTIFIISMYADSQPRGMAVAISVKCEKISTLSAENKIISFKEMNPPDNIKDTKSDIIFFQRSVPGHDNKMQFESSSYEGYFLAAEKERDLFKLILKKEDELGDRSIMFTVQNED
# B9: C322 (ligand)
# chain: MAAEPVEDNSINFVAMKFIDNTLYFIAEDDENLESDSGRVANLVGGSGYFGKLKSKLSIIRNLNDQVLFIDQGNRPLFEDMTDSDARDNAPRTIFIISMYADSQPRGMAVAISVKCEKISTLSAENKIISFKEMNPPDNIKDTKSDIIFFQRSVPGHDNKMQFESSSYEGYFLAAEKERDLFKLILKKEDELGDRSIMFTVQNED
# Target: T1, IL-18 receptor (IL-18Rαβ) on cells
# Experiment: cell-based or functional assay
row,IFNγ release NK-92 assay EC50 [nM],Binder
1,0.0467,B1
2,102,B2
3,201,B3
4,0.0514,B4
5,112,B5
6,217,B6
7,0.0022,B7
8,51.7,B8
9,205,B9
